Results reported in patent publication US11510990B2, “Conjugates of fusion proteins of GLP-1 and FGF21” (BEIJING QL BIOPHARMACEUTICAL CO., LTD., priority 2020, dated 2022).
Positions count from the first letter of the chain named.

B1: Compound 14: GLP-1/FGF21 fusion polypeptide SEQ ID NO: 14 conjugated with Moiety A at 222K (conjugate)
chain: HGEGTFTSDVSSYLEEQAAREFIAWLVRGGGGQEPGQEPGQEPGQEPGQEPHPIPDSSPLLQFGGQVRQRYLYTDDAQQTEAHLEIREDGTVGGAADQSPESLLQLRALRPGVIQILGVRTSRFLCQRPDGALYGSLHFDPEACSFRELLLEDGYNVYQSEAHGLPLHLPGQRSPHRDPAPRGPARFLPLPGLPPALPEPPGILAPQPPDVGSSDPLSLVGKSQGRSPSYES
modifications: Moiety A conjugated at K222
B2: Compound 5: GLP-1/FGF21 fusion polypeptide SEQ ID NO: 5 conjugated with Moiety A at 51K and 222K (conjugate)
chain: HGEGTFTSDVSSYLEEQAAREFIAWLVRGGGGGGGSGGGGSGGGGSGGGGKHPIPDSSPLLQFGGQVRQRYLYTDDAQQTEAHLEIREDGTVGGAADQSPESLLQLRALRPGVIQILGVRTSRFLCQRPDGALYGSLHFDPEACSFRELLLEDGYNVYQSEAHGLPLHLPGQRSPHRDPAPRGPARFLPLPGLPPALPEPPGILAPQPPDVGSSDPLSLVGKSQGRSPSYAS
modifications: Moiety A conjugated at K51 and K222
B3: Compound 13: GLP-1/FGF21 fusion polypeptide SEQ ID NO: 13 conjugated with Moiety A at 222K (conjugate)
chain: B1 chain with Q33A, E34Q, Q37A, E38Q, Q41A, E42Q, Q45A, E46Q, Q49A, E50Q
modifications: Moiety A conjugated at K222
B4: Compound 2: GLP-1/FGF21 fusion polypeptide SEQ ID NO: 2 conjugated with Moiety A at 20K and 231K (conjugate)
chain: B2 chain with R20K, K51S, K222G, A231K
modifications: Moiety A conjugated at K20 and K231
B5: Compound 12: GLP-1/FGF21 fusion polypeptide SEQ ID NO: 12 conjugated with Moiety A at 225K (conjugate)
chain: B2 chain with K51S, K222G, G225K, A231E
modifications: Moiety A conjugated at K225
B6: Compound 11: GLP-1/FGF21 fusion polypeptide SEQ ID NO: 11 conjugated with Moiety A at 221K (conjugate)
chain: B2 chain with K51S, G221K, K222P, A231E
modifications: Moiety A conjugated at K221

Assay: Body weight reduction in C57BL/6 mice, daily subcutaneous dosing
Type: in vivo
Conditions: 30 nmol/kg
Experimental: FIGS. 1A-1F show in vivo activities of fusion protein conjugates. […] Body weight was measured daily. […] Compared to Vehicle control: ***, p<0.001. All data are expressed as mean values and standard error (SEM).
10 week old male C57BL/6 mice were injected everyday subcutaneously with 30 nmol/kg exemplary fusion protein conjugates for 10 or 14 days (n=5). Body weight was daily monitored for each individual animal. Day 1 and Day 10 (or Day 14) are first day and last day of molecule dosage. % BW loss=100*(BW on Day n-BW on Day 1)/(BW on Day 1). Data are indicated as mean values and standard error (SEM) or pooled values. Statistical analysis was performed by One-way ANOVA. Body weight reduction on Day 11 in Table 5 is calculated by −1*(% BW loss−% BW loss of vehicle group).

In the case of B1, the “BW reduction efficacy compared to Compounds 10 and 13” value is reported as “lower BW reduction efficacy”.

Same assay, conditions: 30 nmol/kg, 10-day dosing period (FIGS. 1A-1B)

With B2 the “BW reduction compared to Semaglutide” value was “much more enhanced and persistent BW reduction”.

Same assay, conditions: male C57BL/6 mice, 30 nmol/kg subcutaneously everyday, Day 11

Point of comparison: B5, “Body weight reduction at 30 nmol/kg (% reduction compared to vehicle)(Day11)” value 22.8%. Against it:
- Semaglutide [reference compound] — lower, 6.4%
- B1 — lower, 9.8%
- B3 — higher, 23.6%
- B2 — lower, 14.4%
- B4 — lower, 18.2%
- B6 — lower, 10.4%
